Here are results for four molecules from article PMC10326071.

Series [1] addresses middle domain of human Paip1 (Paip1M, residues 78-296) (human) (UniProt Q9H074). The series can be described thus: BLI; […]; association 30 s, dissociation 80 s; 25 C; global fit, 1:1 model.
Series [2] has as its target middle domain of human poly(A)-binding protein-interacting protein 1 (Paip1M, residues 78-296) (human) (UniProt Q9H074). The series can be described thus: BLI; […]; 1×PBS pH 7.4, 0.1% surfactant P20, 0.1% BSA, 500 mM NaCl; 25 °C; global fit, 1:1 model. On the technique in general: BLI is a label-free optical method that tracks binding on a fibre tip over time.
For series [3], the target named is SARS-CoV SUD-core (SARS-CoV, UniProt P0C6X7 1207-1470). The series can be described thus: BLI. The conditions noted are these: protein: recombinant; tags: N-terminal 6xHis; G4.
The target in series [4] is T1, SARS-CoV-2 SUD-core (SARS-CoV-2, UniProt P0DTD1 1231-1494). The series can be described thus: BLI. To be noted: protein: recombinant; tags: N-terminal 6xHis; G4.
Series [5] concerns the target T1, SARS-CoV-2 SUD-core. The series can be described thus: BLI; Fig. 2C titration. To be noted: protein: recombinant; tags: N-terminal 6xHis; G4.
Series [6] has as its target T1, SARS-CoV-2 SUD-core. Nature of the series: EMSA; no compound. The conditions noted are these: protein: recombinant; tags: N-terminal 6xHis; label: none stated; SYBR-Gold stain; G4 (predicted).

Sequence of middle domain of human Paip1 (Paip1M, residues 78-296) (human) (Q9H074 157-375): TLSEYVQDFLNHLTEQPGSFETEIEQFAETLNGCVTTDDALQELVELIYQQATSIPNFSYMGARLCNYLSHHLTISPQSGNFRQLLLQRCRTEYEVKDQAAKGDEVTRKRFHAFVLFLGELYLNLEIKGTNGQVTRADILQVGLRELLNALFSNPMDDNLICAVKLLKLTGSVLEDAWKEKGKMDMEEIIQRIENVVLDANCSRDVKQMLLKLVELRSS
Sequence of middle domain of human poly(A)-binding protein-interacting protein 1 (Paip1M, residues 78-296) (human) (Q9H074 157-375): as above

Usually koff stands for the rate constant with which the complex falls apart. The low end stands for a long-lived complex, the high end for a short-lived complex. What is called Kd is the free concentration of one partner at which half of the binding sites on the other are occupied at equilibrium, for simple one-to-one binding. As for “SARS-CoV SUD-core (nsp3 389-652) (domain or fragment)”, the koff in series [1] was 0.0066 s⁻¹. In addition, the Kd in series [2] is 4400 nM.

On to “SARS-CoV-2 SUD-core (nsp3 residues 413-676) (domain or fragment)”, for which, in series [1], the off-rate (koff) amounted to 0.0055 s⁻¹.

As to CGGGAGGGCGGGGAGGGC (structured_RNA) [G4-TRF2 (BLI)], the Kd in series [3] is 17 nM; in series [4], 35.8 nM; in series [5], 170 nM.

As to GGCUUAUAGGUUUAAUGGUAUUGG (structured_RNA) [G4-24268 (EMSA)], the binding result in series [6] is listed as “binds”.
